Assay [1] deals with T1, cynomolgus monkey IL-17A (Macaca fascicularis (cynomolgus monkey)).
T1 construct: also called cyno IL-17A; cyno IL17A
Put plainly: SPR (Biacore T200). In general terms: In SPR one partner is held on a chip, and binding of the other changes the refractive index at the surface.
Experimental: (§1) After each analyte injection cycle the CAP sensor chip was regenerated and new antigen was captured. The scFvs were injected as analyte using a dose response multi-cycle kinetic assay with concentrations of the analyte ranging from 0.35 to 90 nM diluted in running buffer. Obtained sensorgrams were fitted using the 1:1 binding model. In addition, the scFvs were analyzed in an alternative SPR assay setup (“direct setup”).

Assay [2] has as its target T2, human IL-17A (human, UniProt Q16552 24-155, limits assumed). Put plainly: cell-based or functional assay.
The target in assay [3] is T1, cynomolgus monkey IL-17A. Put plainly: SPR (Biacore T200), cynomolgus IL-17A, scFv as analyte.
Experimental: as §1
The target in assay [4] is T2, human IL-17A. Put plainly: competitive ELISA: IL-17RA coated, biotinylated IL-17A preincubated with scFv.
Experimental: Finally, Tetramethylbenzidin solution (KPL, Cat. No. 53-00-00) was added to develop the plate for 5 to 10 minutes and the reaction was stopped with 1 M HCl. The plate was read using a microtiter plate reader (Infinity reader M200 Pro, Tecan) at a wavelength of 450 nm and 570 nm (reference wavelength).
Assay [5] concerns the target T2, human IL-17A. Put plainly: SPR (Biacore T200), direct setup: IL-17A amine-coupled on CM5, scFv as analyte.
Experimental: as §1
The target in assay [6] is T2, human IL-17A. Put plainly: SPR (Biacore T200), capture setup: biotinylated IL-17A captured, scFv as analyte.
Experimental: as §1
Assay [7] addresses T3, human IL-17B (human, UniProt Q9UHF5 21-180).
T3 sequence: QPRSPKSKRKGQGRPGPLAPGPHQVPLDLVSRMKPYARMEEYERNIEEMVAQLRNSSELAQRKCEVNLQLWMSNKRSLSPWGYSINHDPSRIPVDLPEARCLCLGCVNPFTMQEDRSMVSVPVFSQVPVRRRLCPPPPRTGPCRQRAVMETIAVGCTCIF
Put plainly: competition ELISA: scFv A1 coated, binding of biotinylated IL-17A detected, unlabeled IL-17B titrated as competitor [I) B]. (An ELISA detects its analyte on a solid surface through an enzyme-linked reagent.)
Text: (§2) For this purpose, the scFvs were coated on a 96-well ELISA plate.

Assay [8] addresses T4, human IL-17C (human, UniProt Q9P0M4 19-197).
T4 sequence: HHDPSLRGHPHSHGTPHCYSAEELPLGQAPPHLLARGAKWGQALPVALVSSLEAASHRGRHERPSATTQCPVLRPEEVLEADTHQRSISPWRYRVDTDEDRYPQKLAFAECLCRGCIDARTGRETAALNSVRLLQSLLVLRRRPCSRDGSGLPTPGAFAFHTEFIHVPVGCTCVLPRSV
Put plainly: competition ELISA: scFv A1 coated, binding of biotinylated IL-17A detected, unlabeled IL-17C titrated as competitor [I) B].
Text: as §2

Assay [9] has as its target T5, human IL-17D (human, UniProt Q8TAD2 16-202, limits assumed).
T5 sequence: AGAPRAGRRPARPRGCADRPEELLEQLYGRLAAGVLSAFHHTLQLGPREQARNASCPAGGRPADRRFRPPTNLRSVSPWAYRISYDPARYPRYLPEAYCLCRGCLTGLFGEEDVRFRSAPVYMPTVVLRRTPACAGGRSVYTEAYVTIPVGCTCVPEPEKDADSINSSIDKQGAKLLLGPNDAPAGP
Put plainly: competition ELISA: scFv A1 coated, binding of biotinylated IL-17A detected, unlabeled IL-17D titrated as competitor [I) A].
Text: as §2

The target in assay [10] is T6, human IL-17E (human, UniProt Q9H293 33-177).
T6 construct: also called IL-25
T6 sequence: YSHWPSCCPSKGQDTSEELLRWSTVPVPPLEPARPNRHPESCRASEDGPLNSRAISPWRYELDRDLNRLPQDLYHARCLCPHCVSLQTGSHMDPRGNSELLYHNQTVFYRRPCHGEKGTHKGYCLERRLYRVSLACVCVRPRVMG
Put plainly: competition ELISA: scFv A1 coated, binding of biotinylated IL-17A detected, unlabeled IL-17E titrated as competitor [I) A].
Text: as §2

Assay [11] deals with T7, human IL-17F (human, UniProt Q96PD4 31-163).
T7 construct: Peprotech Cat. No. 200-25 in the direct ELISA
T7 sequence: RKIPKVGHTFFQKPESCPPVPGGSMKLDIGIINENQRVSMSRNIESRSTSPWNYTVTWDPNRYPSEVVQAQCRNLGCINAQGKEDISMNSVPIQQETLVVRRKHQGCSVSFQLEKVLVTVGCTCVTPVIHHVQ
Put plainly: competition ELISA: scFv A1 coated, binding of biotinylated IL-17A detected, unlabeled IL-17F titrated as competitor [I) A].
Text: as §2

In assay [12] the target is T4, human IL-17C. Put plainly: competition ELISA: scFv coated, biotinylated IL-17A, unlabeled cytokine titrated.
Text: as §2
The target in assay [13] is T7, human IL-17F. The description is as above.
Text: as §2
Assay [14] concerns the target T3, human IL-17B. Put plainly: competition ELISA: scFv PRO571 coated, binding of biotinylated IL-17A detected, unlabeled IL-17B titrated as competitor [II) B].
Text: as §2
Assay [15] addresses T5, human IL-17D. Put plainly: competition ELISA: scFv PRO571 coated, binding of biotinylated IL-17A detected, unlabeled IL-17D titrated as competitor [II) A].
Text: as §2
Assay [16] deals with T6, human IL-17E. Put plainly: competition ELISA: scFv PRO571 coated, binding of biotinylated IL-17A detected, unlabeled IL-17E titrated as competitor [II) A].
Text: as §2
Assay [17] concerns the target T3, human IL-17B. Put plainly: competition ELISA: scFv PRO592 coated, binding of biotinylated IL-17A detected, unlabeled IL-17B titrated as competitor [II) D].
Text: as §2
Assay [18] has as its target T4, human IL-17C. Put plainly: competition ELISA: scFv PRO592 coated, binding of biotinylated IL-17A detected, unlabeled IL-17C titrated as competitor [II) D].
Text: as §2
The target of assay [19] is T5, human IL-17D. Put plainly: competition ELISA: scFv PRO592 coated, binding of biotinylated IL-17A detected, unlabeled IL-17D titrated as competitor [II) C].
Text: as §2
The target of assay [20] is T6, human IL-17E. Put plainly: competition ELISA: scFv PRO592 coated, binding of biotinylated IL-17A detected, unlabeled IL-17E titrated as competitor [II) C].
Text: as §2
Assay [21] deals with T7, human IL-17F. Put plainly: competition ELISA: scFv PRO592 coated, binding of biotinylated IL-17A detected, unlabeled IL-17F titrated as competitor [II) C].
Text: as §2

Substitutions are numbered along the chain they refer to.

B1: A1 (humanized anti-IL-17A scFv, CDR graft of 27-07-G02) (scFv)
scFv: DIQMTQSPSSLSASVGDRVTITCQASQTINYWLAWYQQKPGKAPKLLIYRASTLASGVPSRFSGSGSGTDFTLTISSLQPEDFATYYCQNYYYSTSRSYGFGGGTKLTVLGGGGGSGGGGSGGGGSGGGGSEVQLVESGGGLVQPGGSLRLSCAASGFSFSSDYWMCWVRQAPGKGLEWIGCIYAGDVDDTDYASWARGRFTISRDNSKNTVYLQMNSLRAEDTAVYYCARVDGFDITYFDLWGQGTLVTVSS
notes: VL-linker-VH; also called 27-07-G02-sc01; 27_07_G02_sc01
The term Kd denotes the constant that tells how readily two partners part at equilibrium. What is called koff is the first-order rate constant of dissociation. A word on the kon: it is a measure of how fast the partners come together. For orientation: IC50 means the concentration that inhibits the measured activity by half. As for B1, the “KD, cyno/KD, human” value with cynomolgus monkey IL-17A [1] amounted to 3.66. Moreover, in the assay with human IL-17A [2], the “IC50 in HT-29 assay, GRO-α secretion” value worked out at 0.2 ng/mL. Moreover, the Kd with cynomolgus monkey IL-17A [3] came out at 0.905 nM; with human IL-17A [5] it was 0.139 nM; with human IL-17A [6], 0.247 nM. In addition, the koff in the assay with cynomolgus monkey IL-17A [3] worked out at 0.000261 s⁻¹; with human IL-17A [5] it was 0.000102 s⁻¹; in the assay with human IL-17A [6], 0.000112 s⁻¹. For the same molecule, the on-rate constant (kon) with cynomolgus monkey IL-17A [3] was 288000 M⁻¹ s⁻¹; with human IL-17A [5] it was 737000 M⁻¹ s⁻¹; in the assay with human IL-17A [6], 455000 M⁻¹ s⁻¹. For the same molecule, the IC50 with human IL-17A [4] was found to be 2 ng/mL. The binding result with human IL-17B [7] is “no binding (tested: about 100000 ng/mL)”; in the assay with human IL-17C [8] it was “no binding (tested: about 100000 ng/mL)”; in the assay with human IL-17D [9], “no binding (tested: about 100000 ng/mL on the axis)”; with human IL-17E [10], “no binding (tested: about 20000 ng/mL)”; with human IL-17F [11], “no binding (tested: about 20000 ng/mL)”.

B2: PRO571 (humanized anti-IL-17A scFv, CDR graft of 27-31-C04) (scFv)
scFv: DIQMTQSPSSLSASVGDRVTITCQASESIYRYLSWYQQKPGKAPKLLIYLASTLTSGVPSRFSGSGSGTDFTLTISSLQPEDFATYYCQSNFGTASTTYYNTFGGGTKLTVLGGGGGSGGGGSGGGGSGGGGSEVQLVESGGGLVQPGGSLRLSCAASGFSFSGFYYMCWVRQAPGKGLEWIGCIDTGDGTTYYASWAKGRFTISRDNSKNTVYLQMNSLRAEDTAVYYCARDAAYGGYAYPAHGMDLWGQGTLVTVSS
notes: VL-linker-VH; also called 27-31-C04-sc01; 27_31_C04_sc01
Consider B2, for which, in the assay with cynomolgus monkey IL-17A [1], the “KD, cyno/KD, human” value came to 0.28. In the assay with human IL-17A [2], the “IC50 in HT-29 assay, GRO-α secretion” value was 0.1 ng/mL. Further, the results for the equilibrium dissociation constant (Kd) in the assay with cynomolgus monkey IL-17A [3], in the assay with human IL-17A [5] and in the assay with human IL-17A [6] were 0.0331 nM, 0.0403 nM and 0.119 nM, respectively. The results for the dissociation rate constant (koff) with cynomolgus monkey IL-17A [3], with human IL-17A [5] and in the assay with human IL-17A [6] were 3.88e-05 s⁻¹, 4.55e-05 s⁻¹ and 0.000144 s⁻¹, respectively. Moreover, the kon with cynomolgus monkey IL-17A [3] worked out at 1.17e+06 M⁻¹ s⁻¹; in the assay with human IL-17A [5], 1.13e+06 M⁻¹ s⁻¹; with human IL-17A [6], 1.21e+06 M⁻¹ s⁻¹. For the same molecule, the binding result is “no binding (tested: 100000 ng/ml)” with human IL-17C [12]; “no binding (tested: 20000 ng/ml)” with human IL-17F [13]; “no binding (tested: about 100000 ng/mL)” in the assay with human IL-17B [14]; “no binding (tested: about 500000 ng/mL)” with human IL-17D [15]; “no binding (tested: about 20000 ng/mL)” in the assay with human IL-17E [16]. The molecule also gave an IC50 in the assay with human IL-17A [4] of 1.8 ng/mL.

B3: PRO592 (humanized anti-IL-17A scFv, STR graft of 27-31-C04) (scFv)
scFv: B2 scFv with R152T, Q251P
notes: VL-linker-VH; also called 27-31-C04-sc02; 27_31_C04_sc02
B3: the “KD, cyno/KD, human” value with cynomolgus monkey IL-17A [1] was determined as 0.44. Moreover, the “IC50 in HT-29 assay, GRO-α secretion” value in the assay with human IL-17A [2] came out at 0.13 ng/mL. For the same molecule, the values for the Kd in the assay with cynomolgus monkey IL-17A [3], with human IL-17A [5] and in the assay with human IL-17A [6] were 0.16 nM, 0.0376 nM and 0.367 nM, respectively. For the same molecule, the koff in the assay with cynomolgus monkey IL-17A [3] stood at 5.38e-05 s⁻¹; in the assay with human IL-17A [5], 4.07e-05 s⁻¹; in the assay with human IL-17A [6], 0.000142 s⁻¹. Further, the values for the on-rate constant (kon) with cynomolgus monkey IL-17A [3], in the assay with human IL-17A [5] and with human IL-17A [6] were 336000 M⁻¹ s⁻¹, 1.08e+06 M⁻¹ s⁻¹ and 387000 M⁻¹ s⁻¹, respectively. The molecule further yielded a concentration for half-maximal inhibition (IC50) with human IL-17A [4] of 0.9 ng/mL. Further, the binding result with human IL-17B [17] is “no binding (tested: about 100000 ng/mL)”; with human IL-17C [18], “no binding (tested: about 100000 ng/mL)”; in the assay with human IL-17D [19], “no binding (tested: about 500000 ng/mL)”; with human IL-17E [20] it was “no binding (tested: about 20000 ng/mL)”; in the assay with human IL-17F [21], “no binding (tested: about 20000 ng/mL)”.
